The chains are these.
B1: Lysozyme C, P61626 (parent)
chain: MKALIVLGLVLLSVTVQGKVFERCELARTLKRLGMDGYRGISLANWMCLAKWESGYNTRATNYNAGDRSTDYGIFQINSRYWCNDGKTPGAVNACHLSCSALLQDNIADAVACAKRVVRDPQGIRAWVAWRNRCQNRDVRQYVQGCGV

In the data set the parent is B1. The conditions noted are these: Homo sapiens, pH 3, Thermal, DSC, glycine-HCl 0.05 M, reversible: yes, structure 1LZ1, whole UniProt chain shown; for ddG of mutation (higher = less stable) / unfolding enthalpy (calorimetric) / unfolding free energy: 57 °C.

For C95A, the “ddG of mutation (higher = less stable)” value stood at 4.6 kcal/mol, the “unfolding enthalpy (calorimetric)” value is 94.8 kcal/mol and the unfolding free energy was 0 kcal/mol.

One may read the Tm as the temperature at the midpoint of the melting transition. Turning to C95A C113A, the “ddG of mutation (higher = less stable)” value worked out at 4.6 kcal/mol, the “unfolding enthalpy (calorimetric)” value worked out at 90.8 kcal/mol, the unfolding free energy was 0 kcal/mol and the midpoint of thermal melting (Tm) was found to be 56.9 °C. For the same variant, the “change of melting temperature, mutant - wild type (higher = more stable)” value was -14.5 °C.
